Measurements taken from patent publication US12092631B2, “Optical thromboelastography systems and methods” (The General Hospital Corporation, priority 2014, dated 2024).

Test system: human blood samples
Assay: OTEG fibrinolysis measurement (LY15) in human blood samples spiked with tPA
Conditions: human blood spiked with 0.5 μg/ml tPA (14% at 0 μg/ml), three repeated measurements, FIG. 13
Procedure: Dilutional coagulopathy is generated by serially diluting whole blood (30-60%) with phosphate buffer saline (PBS) solution to vary MA (FIGS. 9A, 9B, 9C). Diluted blood is treated with low to high doses of fibrinogen concentrate (80-160 μL) which also varies MA. Undiluted blood is treated with unfractionated heparin to reach a maximum concentration of 1 U/ml to vary PT, R and K times. To induce fibrinolysis, blood is spiked with varying concentrations of tissue plasminogen activator (tPA) to alter % LY (FIGS. 10A, 10B). Thrombocytopenia or low platelet count is achieved by blood centrifugation, and substitution of platelet-rich with platelet-poor plasma at varying doses, followed by subsequent reconstitution. […]
FIGS. 12, 12B, 12C, 12D, and 12E illustrate the effect of tissue plasminogen activator (tPA) on blood coagulation parameters (Clot Reaction Time, Clotting Time, Clot Progression Rate, Clot Stiffness, and Fibrinolysis) measured with OTEG according to an embodiment of the invention and TEG. […]
FIG. 13 illustrates reproducibility in OTEG-based fibrinolysis measurement of the parameter LY15 in human blood samples spiked with 0-0.5 μg/ml of tPA. The concentration of tPA from 0 to 0.5 μg/ml increases the fibrinolysis from 14% to 51%, which can be successfully detected with an embodiment of the invention. […]

B1: tPA: tissue plasminogen activator, spiked into blood to activate fibrinolysis (protein, UniProt P00750 36-562, looked up)
Tissue-type plasminogen …: SYQVICRDEKTQMIYQQHQSWLRPVLRSNRVEYCWCNSGRAQCHSVPVKSCSEPRCFNGGTCQQALYFSDFVCQCPEGFAGKCCEIDTRATCYEDQGISYRGTWSTAESGAECTNWNSSALAQKPYSGRRPDAIRLGLGNHNYCRNPDRDSKPWCYVFKAGKYSSEFCSTPACSEGNSDCYFGNGSAYRGTHSLTESGASCLPWNSMILIGKVYTAQNPSAQALGLGKHNYCRNPDGDAKPWCHVLKNRRLTWEYCDVPSCSTCGLRQYSQPQFRIKGGLFADIASHPWQAAIFAKHRRSPGERFLCGGILISSCWILSAAHCFQERFPPHHLTVILGRTYRVVPGEEEQKFEVEKYIVHKEFDDDTYDNDIALLQLKSDSSRCAQESSVVRTVCLPPADLQLPDWTECELSGYGKHEALSPFYSERLKEAHVRLYPSSRCTSQHLLNRTVTDNMLCAGDTRSGGPQANLHDACQGDSGGPLVCLNDGRMTLVGIISWGLGCGQKDVPGVYTKVTNYLDWIRDNMRP
fibrinolysis (LY15): 51%
